Source: PMC7703752, “Proteome-level assessment of origin, prevalence and function of leucine-aspartic acid (LD) motifs” (Bioinformatics, 2019)
Where no end group is shown, it is not given here. The star is where a group is joined. FITC = O=C1OC2(c3ccc(O)cc3Oc3cc(O)ccc32)c2ccc(NC(=S)*)cc21; Ahx = NCCCCCC(=O)O

B1: C16orf71 LD motif peptide (peptide)
peptide: EAWDLDDILQSLQGQ
modifications: also: N-terminal FITC-Ahx only in labelled form
notes: predicted LD motif of human C16orf71; also called CP071; source: synthetic peptide, bought: GenScript
B2: LPP (Lipoma-preferred partner) LD motif peptide (peptide)
peptide: AEIDSLTSILADLESS
modifications: also: N-terminal FITC-Ahx only in labelled form
notes: predicted LD motif of human LPP (Lipoma-preferred partner); source: synthetic peptide, bought: GenScript
B3: PPP2R3A LD motif peptide, unlabelled (peptide)
peptide: SQEEIDKLLMDLESFSQ
notes: Serine/threonine-protein phosphatase 2A regulatory subunit B'' subunit alpha, human; core motif 508-517; form without label, used in ACA, DSF and ITC; source: synthetic peptide, bought: GenScript
B4: EPB41L5 LD motif peptide, unlabelled (peptide)
peptide: ATDELDALLASLTENLID
notes: Band 4.1-like protein 5, human; core motif 634-643; form without label, used in ACA, DSF and ITC; also called E41L5; Band 4.1-like protein 5 peptide; source: synthetic peptide, bought: GenScript
B5: RALGAPA1 LD motif peptide, unlabelled (peptide)
peptide: EDVLDELLQYLGVT
notes: core motif 1680-1689; form without label, used in ACA and DSF; also called RGPA1; source: synthetic peptide, bought: GenScript
B6: LPP LD motif peptide, unlabelled (peptide)
peptide: AEIDSLTSILADLESS
notes: Lipoma-preferred partner, human; core motif 123-132; form without label, used in ACA, DSF and NMR; also called lipoma-preferred partner peptide; source: synthetic peptide, bought: GenScript
B7: CCDC158 LD motif peptide, FITC-Ahx-labelled (peptide)
peptide: {FITC-Ahx}-DPTRDLKQLLQELRSVIN
notes: core motif 903-912; labelled form, used in direct anisotropy and MST; also called CD158; source: synthetic peptide, bought: GenScript
B8: LPP LD motif peptide, FITC-Ahx-labelled (peptide)
peptide: {FITC-Ahx}-AEIDSLTSILADLESS
notes: Lipoma-preferred partner, human; core motif 123-132; labelled form, used in direct anisotropy and MST; source: synthetic peptide, bought: GenScript
B9: PPP2R3A LD motif peptide, FITC-Ahx-labelled (peptide)
peptide: {FITC-Ahx}-SQEEIDKLLMDLESFSQ
notes: Serine/threonine-protein phosphatase 2A regulatory subunit B'' subunit alpha, human; core motif 508-517; labelled form, used in direct anisotropy and MST; source: synthetic peptide, bought: GenScript
B10: EPB41L5 LD motif peptide, FITC-Ahx-labelled (peptide)
peptide: {FITC-Ahx}-ATDELDALLASLTENLID
notes: Band 4.1-like protein 5, human; core motif 634-643; labelled form, used in direct anisotropy and MST; also called E41L5; source: synthetic peptide, bought: GenScript
B11: CCDC158 LD motif peptide, unlabelled (peptide)
peptide: DPTRDLKQLLQELRSVIN
notes: core motif 903-912; form without label, used in ACA, DSF and NMR; also called CD158; source: synthetic peptide, bought: GenScript
B12: C16orf71 LD motif peptide, unlabelled (peptide)
peptide: EAWDLDDILQSLQGQ
notes: Uncharacterized protein C16orf71, human; core motif 267-276; form without label, used in ACA and DSF; also called CP071; source: synthetic peptide, bought: GenScript

target: T1, FAT domain of human FAK (892–1052) (human, UniProt Q05397 892-1052); assay: fluorescence polarisation + MST + ITC + other: differential scanning fluorimetry; synthesized peptides against recombinant LDBDs in vitro; direct anisotropy with labelled candidate peptides, anisotropy competition of unlabelled peptides against fluorescently labelled known LD motifs, ITC, MST and DSF summed up together; 25°C, 20 mM HEPES pH 7.5, 150 mM NaCl, 2 mM EDTA, 1 mM TCEP, unless stated otherwise; conditions: both partners purified
T1 construct: focal adhesion kinase (FAK), human, FAT domain, residues 892-1052; 15N-labelled for the NMR titrations; Purification and fate of the GST are told only in the Supplementary Material and in the cited work (Arold et al., 2002); also called FAK FAT; four-helix FAT domain from FAK; source: E. coli BL21, expressed as GST-fusion protein
T1 sequence (looked up): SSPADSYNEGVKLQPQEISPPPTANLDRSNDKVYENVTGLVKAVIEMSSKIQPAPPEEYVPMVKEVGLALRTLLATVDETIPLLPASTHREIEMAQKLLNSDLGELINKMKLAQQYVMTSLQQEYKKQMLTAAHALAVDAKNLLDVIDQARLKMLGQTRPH

Binder	binding result
B1	binds

target: T2, Human α-parvin-CHC (residues 242–372) (human, UniProt Q9NVD7 242-372); assay: as above; conditions: both partners purified
T2 construct: α-parvin, human, second CH domain (CHC), residues 242-372; Purification and fate of the GST are told only in the Supplementary Material and in the cited work (Lorenz et al., 2008); also called second CH domain of α-parvin; source: E. coli BL21, expressed as GST-fusion protein
T2 sequence (looked up): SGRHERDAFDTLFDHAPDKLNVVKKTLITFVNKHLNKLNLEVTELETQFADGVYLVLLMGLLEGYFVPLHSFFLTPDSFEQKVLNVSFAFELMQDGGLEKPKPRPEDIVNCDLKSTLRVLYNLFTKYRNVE

Binder	binding result
B2	binds
B1	binds

Target: T3, FAT domain of human FAK (892–1052) (human, UniProt Q05397 892-1052)
T3 chain: T1 sequence (looked up)
Assay: FP
Conditions: not given

Binder	Kd [µM]
DPTRDLKQLLQELRSVIN (also: N-terminal FITC-Ahx only in labelled form) [CCDC158 (Coiled-coil domain-containing protein 158) LD motif peptide]	41.6
SASSATRELDELMASLSD (also: N-terminal FITC-Ahx only in labelled form) [Paxillin LD4 peptide]	7.1
SQEEIDKLLMDLESFSQ (also: N-terminal FITC-Ahx only in labelled form) [PPP2R3A LD motif peptide]	41
AEIDSLTSILADLESS (also: also used as N-terminal FITC-Ahx-labelled form)	97.4

Target: T4, Human α-parvin-CHC (residues 242–372) (human, UniProt Q9NVD7 242-372)
T4 chain: T2 sequence (looked up)
Assay: FP
Conditions: not given

Binder	Kd [µM]
SDWEVDDLLCSLLSPPA (also: N-terminal FITC-Ahx only in labelled form) [CREB3 LD motif peptide]	101
SASSATRELDELMASLSD (also: N-terminal FITC-Ahx only in labelled form) [Paxillin LD4 peptide]	24.5
SQEEIDKLLMDLESFSQ (also: N-terminal FITC-Ahx only in labelled form) [PPP2R3A LD motif peptide]	23.3
B1	52

target: T5, FAT domain of human FAK (892-1052) (human, UniProt Q05397 892-1052); assay: fluorescence polarisation + other: differential scanning fluorimetry; the 'qualitative' methods, summed up in one sentence for each peptide: anisotropy competition (unlabelled peptide at 100 and 250 μM against 0.1 μM FITC-Ahx-LD4 with 10 μM FAT or 25 μM α-parvin) and DSF (10 μM protein, peptide at 100 and 250 μM; 20 mM HEPES pH 7.5, 150 mM NaCl, 2 mM EDTA, 1 mM TCEP); conditions: both partners purified
T5 construct: focal adhesion kinase (FAK), human, FAT domain, residues 892-1052; 15N-labelled (M9 minimal medium) in the NMR titrations; also called FAK FAT; focal adhesion targeting domain; source: E. coli BL21, expressed as GST-fusion protein (pGexP2), purified as described previously (Arold et al., 2002)
T5 sequence (looked up): T1 sequence (looked up)

Binder	binding result
B3	binds
B4	binds
B5	binds

target: T6, Human α-parvin-CHC (residues 242-372) (human, UniProt Q9NVD7 242-372); assay: as above; conditions: both partners purified
T6 construct: α-parvin, human, C-terminal CH domain, residues 242-372; also called second CH domain of α-parvin; source: E. coli BL21, expressed as GST-fusion protein (pGex 6P1), purified as described previously (Lorenz et al., 2008)
T6 sequence (looked up): T2 sequence (looked up)

Binder	binding result
B3	binds
B4	binds
B5	binds
B6	binds

target: T5, FAT domain of human FAK (892-1052); assay: fluorescence polarisation + MST; the 'quantitative' methods, summed up in one sentence for each peptide: direct anisotropy (protein serially diluted, FITC-Ahx peptide 0.1 μM; 20 mM HEPES pH 7.5, 150 mM NaCl, 2 mM EDTA, 2 mM DTT, 0.005% Tween-20; room temperature) and MST (protein diluted from 560 μM FAT or 530 μM α-parvin, labelled peptide 0.1 μM, 0.05% Tween-20, 25 °C); ITC in selected cases; conditions: both partners purified

Binder	binding result
B7	binds

target: T5, FAT domain of human FAK (892-1052); assay: as above; conditions: both partners purified; remark: another data set of the same source

Binder	binding result
B8	binds
B9	binds
B10	binds

target: T6, Human α-parvin-CHC (residues 242-372); assay: as above; conditions: both partners purified

Binder	binding result
B8	binds
B9	binds
B10	binds

Target: T3, FAT domain of human FAK (892–1052)
Assay: MST
Conditions: not given

Binder	Kd [µM]
DAALDDLIDTLGGP (also: N-terminal FITC-Ahx only in labelled form) [CAST LD motif peptide]	178
SASSATRELDELMASLSD (also: N-terminal FITC-Ahx only in labelled form) [Paxillin LD4 peptide]	55.5
GDLDNLDAILGDLTSSD (also: N-terminal FITC-Ahx only in labelled form) [NCOA3 (nuclear receptor coactivator 3) LD motif peptide]	261
SQEEIDKLLMDLESFSQ (also: N-terminal FITC-Ahx only in labelled form) [PPP2R3A LD motif peptide]	90
B1	17.2

Target: T4, Human α-parvin-CHC (residues 242–372)
Assay: MST
Conditions: not given

Binder	Kd [µM]
DAALDDLIDTLGGP (also: N-terminal FITC-Ahx only in labelled form) [CAST LD motif peptide]	273
SDWEVDDLLCSLLSPPA (also: N-terminal FITC-Ahx only in labelled form) [CREB3 LD motif peptide]	110
SELDNLEEILDDLQNSQ (also: N-terminal FITC-Ahx only in labelled form) [NCOA2 (nuclear receptor coactivator 2) LD motif peptide]	251
SASSATRELDELMASLSD (also: N-terminal FITC-Ahx only in labelled form) [Paxillin LD4 peptide]	3.1
AEIDSLTSILADLESS (also: also used as N-terminal FITC-Ahx-labelled form)	169
B1	32.3

Target: T3, FAT domain of human FAK (892–1052)
Assay: ITC
Conditions: not given

Binder	Kd [µM]
SASSATRELDELMASLSD (also: N-terminal FITC-Ahx only in labelled form) [Paxillin LD4 peptide]	19.7
SQEEIDKLLMDLESFSQ (also: N-terminal FITC-Ahx only in labelled form) [PPP2R3A LD motif peptide]	19.7

target: T5, FAT domain of human FAK (892-1052); assay: fluorescence polarisation + other: differential scanning fluorimetry; the 'qualitative' methods, summed up in one sentence for each peptide: anisotropy competition (unlabelled peptide at 100 and 250 μM against 0.1 μM FITC-Ahx-LD4 with 10 μM FAT or 25 μM α-parvin) and DSF (10 μM protein, peptide at 100 and 250 μM; 20 mM HEPES pH 7.5, 150 mM NaCl, 2 mM EDTA, 1 mM TCEP); conditions: both partners purified; remark: another data set of the same source

Binder	binding result
B11	binds
B12	binds

target: T6, Human α-parvin-CHC (residues 242-372); assay: as above; conditions: both partners purified; remark: another data set of the same source

Binder	binding result
B11	binds
B12	binds
